B1: S. cerevisiae Abp1 (full length; SH3 domain 535-592 mutated) / Hua2 (parent)
chain 1: MALEPIDYTTHSREIDAEYLKIVRGSDPDTTWLIISPNAKKEYEPESTGSSFHDFLQLFDETKVQYGLARVSPPGSDVEKIIIIGWCPDSAPLKTRASFAANFAAVANNLFKGYHVQVTARDEDDLDENELLMKISNAAGARYSIQTSSKQQGKASTPPVKKSFTPSKSPAPVSKKEPVKTPSPAPAAKISSRVNDNNDDDDWNEPELKERDFDQAPLKPNQSSYKPIGKIDLQKVIAEEKAKEDPRLVQKPTAAGSKIDPSSDIANLKNESKLKRDSEFNSFLGTTKPPSMTESSLKNDDDKVIKGFRNEKSPAQLWAERKAKQNSGNAETKAEAPKPEVPEDEPEGEPDVKDLKSKFEGLAASEKEEEEMENKFAPPPKKSEPTIISPKPFSKPQEPVKAEEAEQPKTDYKKIGNPLPGMHIEADNEEEPEENDDDWDDDEDEAAQPPLPSRNVASGAPVQKEEPEQEEIAPSLPSRNSIPAPKQEEAPEQAPEEEIEEEAEEAAPQLPSRSSAAPPPPPRRATPEKKPKENPWATAEYDYDAAEDNELTFVENDKIINIEFVDDDWWLGELEKDGSKGLFPSNYVSLGN
chain 2: MQQTKFGKMYLDHDSVVEYSEDEIVEADRITLGYKKRLSMIENQMRHLLEDFSLDVQQIEPILADLQKYYDAFLQLLQKRNKSLQCKRSTHQPVPSPMNSQTSTNAKVNLSGKLMKFQLNSVQKFDEENILRILQNKIEFEHYFQIDKGKKQKVLLLAVYQCLNGPTRLHKVLNIEGIIHNNSIRTILGKQVSSSKWTVFLYDVKLVLLAHRQDVPNLETSKMIVRYGDLFPCALYFKDHTAY

The first experiment covers variants of B1. Put plainly: DHFR protein-fragment complementation in yeast (Abp1-DHFR F[1,2] x partner-DHFR F[3]), deep mutational scanning, second methotrexate selection vs reference. The conditions noted are these: with Hua2; S. cerevisiae, DHFR-PCA selection in liquid with methotrexate at 30 C, two 72 h selections (the score uses the second); reference = the pre-selection culture; not an affinity; scale: DMS score: mean over two replicates of log2(f_test/f_ref + 0.5)/ln 2, minus the synonymous-codon median.
For the variant chain 1 D566V, the screen value was -2.75.

With chain 1 W569L, the screen value was -2.34.

Turning to chain 1 W569C, the screen value was -1.49.

As for chain 1 W569V, the screen value was -2.92.

For chain 1 W569G, the screen value was -2.06.

Consider chain 1 W569E, for which the screen value was -2.94.

For chain 1 W569R, the screen value is -2.35.

With chain 1 E555W, the screen value was -1.84.

Consider chain 1 D557K, for which the screen value is -2.91.

As for chain 1 D557Y, the screen value was -2.77.

Regarding chain 1 D557S, the screen value was -2.41.

With chain 1 D557M, the screen value was -2.77.

With chain 1 D557N, the screen value was -1.63.

On to chain 1 D557A, for which the screen value was -2.31.

Regarding chain 1 D557C, the screen value is -2.97.

With chain 1 D557G, the screen value is -2.9.

Consider chain 1 D557V, for which the screen value was -2.87.

For chain 1 K558G, the screen value was -2.62.

Take chain 1 K558N: the screen value is -1.29.

For chain 1 K558D, the screen value was -2.59.

Turning to chain 1 K558W, the screen value is -2.78.

Turning to chain 1 I560A, the screen value was -1.35.

With chain 1 I560W, the screen value is -2.4.

For chain 1 I560D, the screen value is -2.15.

chain 1 I560G: the screen value is -2.38.

In the case of chain 1 T552Q, the screen value is -1.13.

As for chain 1 T552I, the screen value was -1.99.

For the variant chain 1 T552V, the screen value is -2.72.

As for chain 1 T552C, the screen value is -1.73.

With chain 1 T552M, the screen value is -2.22.

For chain 1 T552Y, the screen value is -2.8.

For the variant chain 1 T552E, the screen value was -1.32.

For chain 1 T552P, the screen value is -2.02.

As to chain 1 T552F, the screen value is -2.87.

In the case of chain 1 T538D, the screen value is -2.65.

Regarding chain 1 T538P, the screen value was -1.88.

Turning to chain 1 T538W, the screen value was -1.19.

Consider chain 1 T538G, for which the screen value was -2.9.

For chain 1 D548Y, the screen value was -1.22.

Turning to chain 1 L571P, the screen value is -2.25.

In the case of chain 1 L571G, the screen value was -1.24.

Take chain 1 D568C: the screen value is -2.91.

On to chain 1 F583Y, for which the screen value was -1.68.

For chain 1 F583I, the screen value was -1.72.

As for chain 1 F583C, the screen value was -2.31.

chain 1 F583L: the screen value was -1.78.

With chain 1 F583V, the screen value was -2.31.

chain 1 F583S: the screen value is -2.62.

As for chain 1 G581A, the screen value was -2.84.

For the variant chain 1 G581D, the screen value is -2.22.

chain 1 G581V: the screen value was -2.59.

Turning to chain 1 G581R, the screen value is -2.96.

For chain 1 G581S, the screen value was -2.77.

Turning to chain 1 G581C, the screen value is -2.66.

As to chain 1 Y541T, the screen value is -2.3.

As for chain 1 Y541G, the screen value was -1.86.

As to chain 1 Y541I, the screen value is -2.42.

For chain 1 A546P, the screen value was -2.02.

Turning to chain 1 W570L, the screen value was -2.25.

chain 1 W570S: the screen value is -2.8.

Consider chain 1 W570F, for which the screen value is -2.79.

Turning to chain 1 W570R, the screen value was -2.58.

Regarding chain 1 W570C, the screen value was -1.57.

With chain 1 W570Y, the screen value was -2.31.

chain 1 W570G: the screen value was -2.48.

As for chain 1 W570N, the screen value is -2.68.

Turning to chain 1 S585I, the screen value is -1.59.

For the variant chain 1 S585E, the screen value was -2.07.

In the case of chain 1 I559T, the screen value was -2.21.

For chain 1 I559M, the screen value was -1.42.

With chain 1 I559F, the screen value was -1.21.

As for chain 1 I559S, the screen value was -1.61.

On to chain 1 I559N, for which the screen value was -2.48.

On to chain 1 S579P, for which the screen value is -2.21.

As for chain 1 S579Y, the screen value was -2.71.

As to chain 1 S579A, the screen value is -1.48.

As for chain 1 S579I, the screen value was -1.27.

In the case of chain 1 S579F, the screen value is -2.55.

As for chain 1 S579D, the screen value is -1.27.

For the variant chain 1 S579G, the screen value is -1.41.

Regarding chain 1 S579W, the screen value was -2.9.

In the case of chain 1 L582Q, the screen value is -2.88.

As to chain 1 L582V, the screen value was -2.

As for chain 1 L582C, the screen value is -2.82.

On to chain 1 L582N, for which the screen value was -2.32.

On to chain 1 L582P, for which the screen value is -2.04.

For the variant chain 1 L582H, the screen value was -1.2.

As to chain 1 L582S, the screen value was -2.57.

On to chain 1 E573W, for which the screen value was -2.52.

Consider chain 1 E573D, for which the screen value is -1.16.

Consider chain 1 E573R, for which the screen value is -1.65.

In the case of chain 1 E573G, the screen value was -2.56.

For the variant chain 1 E573L, the screen value is -2.11.

Regarding chain 1 E573K, the screen value is -1.32.

In the case of chain 1 E573A, the screen value is -1.17.

With chain 1 S589Y, the screen value is -1.12.

In the case of chain 1 S589P, the screen value was -2.38.

In the case of chain 1 K576W, the screen value was -2.17.

For the variant chain 1 K576L, the screen value was -1.83.

On to chain 1 K576Y, for which the screen value is -1.6.

Turning to chain 1 K576I, the screen value was -1.18.

On to chain 1 K576F, for which the screen value was -2.16.

On to chain 1 K576P, for which the screen value is -2.88.

Take chain 1 K576M: the screen value was -1.51.

On to chain 1 K576V, for which the screen value was -1.06.

For the variant chain 1 K576D, the screen value was -1.75.

Turning to chain 1 K580Y, the screen value was -1.88.

Consider chain 1 K580W, for which the screen value was -1.55.

With chain 1 K580G, the screen value was -2.39.

Take chain 1 K580D: the screen value is -2.63.

As for chain 1 Y543D, the screen value is -2.57.

As for chain 1 Y543Q, the screen value is -2.77.

Turning to chain 1 Y543N, the screen value is -1.79.

For chain 1 Y543C, the screen value was -2.15.

Take chain 1 Y543S: the screen value was -2.67.

As for chain 1 Y543K, the screen value was -2.96.

Take chain 1 E563M: the screen value is -1.5.

With chain 1 E563G, the screen value was -1.92.

Turning to chain 1 E563Y, the screen value was -2.45.

For the variant chain 1 E563W, the screen value was -2.93.

Take chain 1 E563F: the screen value is -1.96.

Regarding chain 1 E563L, the screen value was -1.4.

In the case of chain 1 F564W, the screen value is -2.35.

As to chain 1 F564A, the screen value was -2.55.

Consider chain 1 F564S, for which the screen value is -2.74.

Regarding chain 1 F564L, the screen value is -1.7.

As to chain 1 F564C, the screen value is -1.62.

Consider chain 1 F564N, for which the screen value is -2.93.

Take chain 1 F564V: the screen value was -2.3.

As for chain 1 F564I, the screen value is -1.74.

In the case of chain 1 F564D, the screen value is -2.53.

For chain 1 F564T, the screen value is -2.07.

chain 1 F564G: the screen value was -2.97.

Still in this experiment, the particulars now being: with Hua2; S. cerevisiae, DHFR-PCA selection in liquid with methotrexate at 30 C, two 72 h selections (the score uses the second); reference = the pre-selection culture; not an affinity; value at the no-binding floor (a bound); scale: DMS score: mean over two replicates of log2(f_test/f_ref + 0.5)/ln 2, minus the synonymous-codon median.
For chain 1 D566W, the screen value was < -3.06.

As to chain 1 D566L, the screen value was < -3.06.

In the case of chain 1 D566P, the screen value is < -3.06.

Turning to chain 1 D566I, the screen value was < -3.06.

For the variant chain 1 D557F, the screen value is < -3.06.

As for chain 1 D557R, the screen value was < -3.06.

Turning to chain 1 D557W, the screen value is < -3.06.

As for chain 1 D557I, the screen value was < -3.06.

Regarding chain 1 D557L, the screen value is < -3.06.

As for chain 1 A537H, the screen value is < -3.06.

As for chain 1 A537E, the screen value is -3.04.

As for chain 1 A537M, the screen value was < -3.06.

As to chain 1 A537Y, the screen value is < -3.06.

Turning to chain 1 A537Q, the screen value is < -3.06.

With chain 1 A537W, the screen value is < -3.06.

Turning to chain 1 A537N, the screen value was < -3.06.

Turning to chain 1 A537I, the screen value was -3.01.

Turning to chain 1 A537L, the screen value was -3.02.

Regarding chain 1 A537R, the screen value is -3.04.

As for chain 1 D568P, the screen value is < -3.06.

chain 1 F583A: the screen value is < -3.06.

Take chain 1 A539L: the screen value was < -3.06.

For the variant chain 1 A539Y, the screen value was < -3.06.

In the case of chain 1 A539Q, the screen value is -3.03.

As for chain 1 A539F, the screen value is < -3.06.

chain 1 A539R: the screen value is -3.02.

Regarding chain 1 A539W, the screen value is -3.01.

For the variant chain 1 A539D, the screen value is -3.

With chain 1 A539I, the screen value is -3.01.

As to chain 1 A539N, the screen value was < -3.06.

In the case of chain 1 A539M, the screen value is < -3.06.

As to chain 1 A539K, the screen value was < -3.06.

chain 1 E573P: the screen value was < -3.06.

With chain 1 E563P, the screen value is -3.04.

Source of the values: paper PMC7954794, “Protein context shapes the specificity of SH3 domain-mediated interactions in vivo” (Nature Communications, 2021).
